Assay results published in patent US20120252730A1, “PLATELET AGGREGATION INHIBITORS” (UNIVERSITY OF CHICAGO, priority 2009, published 2012).
One block for each molecule: values may come before it. maleimide monolayer = not defined here

How the values were obtained:
[1] = test system: αIIbβ3 CHO K1 cells; assay: Cell adhesion assay: αIIbβ3 CHO K1 cells on SAMs presenting immobilized peptides; assay type: cell-based, human; conditions: 0.5% peptide SAM; in presence of 300 μM cRGDFG
Method: Monolayers were prepared as described (Houseman, et al., 2003). Glass coverslips were sonicated for 30 minutes in deionized ultrafiltered (DIUF) water and then 30 minutes in ethanol and then dried under a stream of nitrogen. Titanium (4 nm) and then gold (29 nm) were evaporated onto the coverslips using an electron beam evaporator (Boc Edwards) at a rate of 0.05-0.10 nm/s and at a pressure of 1 μTorr. The gold-coated coverslips were immersed in an ethanolic solution of maleimide-terminated disulfide (1%) and tri(ethylene glycol)-terminated disulfide (99%) overnight at room temperature. The total disulfide concentration was 1 mM. The substrates were washed with DIUF water, ethanol and then dried under a stream of nitrogen.
The pcDNA3.1 vectors that express human αIIb or β3, respectively, have been described previously (see e.g., Litvinov et al. (2006) Biochemistry, 45: 4957-4964). CHO K1, BHK 21 and HT1080 cells were purchased from ATCC. All CHO cells were cultured at 37° C. and 5% CO2 using F12K medium supplemented with 10% FBS and pen/strep. […] CHO K1 cells were transfected with αIIb and β3 cDNA with FuGENE following the supplier's protocol. Transfected cells were selected with 1 mg/mL zeocin and 1 mg/mL geneticin.
(§1) Cysteine-terminated peptides were immobilized onto maleimide-presenting SAMs by adding 40 μL of 1 mM peptide solution to the biochip and incubating at 37° C. for 1 hour. Substrates were rinsed with DIUF water and ethanol and dried under a stream of nitrogen. αIIbβ3 CHO K1 cells were detached from culture plates with 1 mM EGTA/2 mM EDTA in PBS (phosphate-buffered saline), rinsed with serum-free F-12K medium, centrifuged and resuspended in serum-free F-12K medium supplemented with cRGDFG (SEQ ID NO: 12) (300 μM) and 1× penicillin/streptomycin. After 15-minute of incubation, cells (200,000/mL) were added to substrates in 24-well culture plates. After 2 hour incubation at 37° C. and 5% CO2, media was exchanged for F-12K medium supplemented with 10% FBS, 1× penicillin/streptomycin and cRGDFG (SEQ ID NO: 12) (300 μM). After 2 hours, the substrates were washed gently with warm PBS, and adherent cells were immediately fixed with 4% formaldehyde for 30 minutes, visualized with a 20× objective of a Zeiss Axiovert 200 inverted microscope, and photographed. For cell adhesion assays mediated by Ac-GXGDSC (SEQ ID NO: 26), αIIbβ3 CHO K1 cells were incubated on a 5×4 circle (1 mm diameter) array for 1 hour with serum-free F-12K medium supplemented with cRGDFG (SEQ ID NO: 12) (300 μM) and 1× penicillin/streptomycin, followed by media exchange to F-12K medium supplemented with 10% FBS, 1× penicillin/streptomycin and cRGDFG (SEQ ID NO: 12) (300 μM. The substrates were washed with warm PBS, and adherent cells were immediately fixed and permeabilized with 4% formaldehyde and 0.5% Triton-X for 30 minutes. Fixed cells were stained with DAPI, visualized and photographed with a 20× objective as described. The number of adherent cells per field of view was counted using Image J software. Cells were counted in at least three fields for each circle, and each experiment was repeated 3 times. The degree of adhesion is reported as a percentage of cells that adhere relative to control experiments with the peptide Ac-GRGDSC (SEQ ID NO: 28).
Monolayers were prepared that presented a mixture of maleimide groups and tri(ethylene glycol) groups with the former present at a density of 0.5% (relative to total alkanethiolate). The monolayers were treated with cysteine-terminated peptides to immobilize the ligands (FIG. 1A). In each case mass spectrometry was used to verify immobilization of the peptides in high yield (Su et al., 2002).
The adhesion and spreading of αIIbβ3 CHO K1 cells to monolayers presenting GRGDSC (SEQ ID NO: 11), HHLGGAKQAGDVC (SEQ ID NO: 21) and a mixture of both peptides was compared. […]

[2] = target: T1, human αIIbβ3 integrin on transfected CHO K1 cells (human, UniProt P08514 32-1039; P05106 27-788); assay: Ac-GXGDSC peptide array, adhesion of αIIbβ3 CHO K1 cells
T1 construct: whole, on cells; CHO K1 cells transfected with human αIIb and β3 cDNA; about 30% of the cells expressed the receptor; also called platelet receptor; platelet integrin
Method: as §1, with “After” for “Cysteine-terminated peptides were immobilized onto maleimide-presenting SAMs by adding 40 μL of 1 mM peptide solution to the biochip and incubating at 37° C. for 1 hour. Substrates were rinsed with DIUF water and ethanol and dried under a stream of nitrogen. αIIbβ3 CHO K1 cells were detached from culture plates with 1 mM EGTA/2 mM EDTA in PBS (phosphate-buffered saline), rinsed with serum-free F-12K medium, centrifuged and resuspended in serum-free F-12K medium supplemented with cRGDFG (SEQ ID NO: 12) (300 μM) and 1× penicillin/streptomycin. After”, “CO₂,” for “CO2,”
To further assay the binding of peptide ligands to the […] integrin for XGD peptide ligands, an array was used to assess the adhesion of cells to peptides having the arginine residue substituted with each amino acid other than cysteine (e.g., A, D, E, F, G, H, I, K, L, M, N, P, Q, R, S, T, V, W, and Y). The library of Ac-GXGDSC (SEQ ID NO: 26) peptides was synthesized and immobilized in an array with each peptide occupying a 1 mm diameter region of the monolayer (FIG. 61). A suspension of αIIbβ3 CHO K1 cells was applied to the entire array and cells were allowed to attach to regions presenting the various peptides. The substrates were then rinsed and stained with DAPI, and the cells were counted to determine the relative efficiency of cell attachment to peptides in the library.

Molecule: KQAGDVC (completely synthesized peptide)
adhesion of αIIbβ3 CHO K1 cells to monolayer presenting the peptide [1]: adhered and spread

Molecule: HHLGGAC (completely synthesized peptide)
adhesion of αIIbβ3 CHO K1 cells to monolayer presenting the peptide [1]: failed to adhere

Molecule: QAGDVC (completely synthesized peptide)
adhesion of αIIbβ3 CHO K1 cells to monolayer presenting the peptide [1]: adhered

Molecule: GDVC (completely synthesized peptide)
adhesion of αIIbβ3 CHO K1 cells to monolayer presenting the peptide [1]: failed to adhere

Molecule: GHHLGGADQAGKVC (scrambled peptide)
adhesion of αIIbβ3 CHO K1 cells to monolayer presenting the peptide [1]: lack of cell attachment

Molecule: GGAKQAC (completely synthesized peptide)
adhesion of αIIbβ3 CHO K1 cells to monolayer presenting the peptide [1]: failed to adhere

Molecule: KQAGC (completely synthesized peptide)
adhesion of αIIbβ3 CHO K1 cells to monolayer presenting the peptide [1]: failed to adhere

Molecule: KQAGDC (completely synthesized peptide)
adhesion of αIIbβ3 CHO K1 cells to monolayer presenting the peptide [1]: adhered

Molecule: AGDVC (completely synthesized peptide)
adhesion of αIIbβ3 CHO K1 cells to monolayer presenting the peptide [1]: adhered

B1: Ac-GAGDSC (SEQ ID NO: 30), immobilized on a monolayer array (peptide)
peptide: Ac-GAGDSC(maleimide monolayer)-NH2
modifications: not fully specified; printed as Ac-GAGDSC; reading uncertain
notes: also called 0.5% Ac-GAGDSC; Ac-GXGDSC with X = Ala
binding result [2]: binds

Molecule: Ac-GPGDSC(maleimide monolayer)-NH2 (not fully specified; printed as Ac-GXGDSC; reading uncertain, Member of the Ac-GXGDSC library) [Ac-GXGDSC (SEQ ID NO: 26) with X = P, immobilized on a monolayer array]
binding result [2]: no binding

B2: Ac-GGGDSC (SEQ ID NO: 29), immobilized on a monolayer array (peptide)
peptide: Ac-GGGDSC(maleimide monolayer)-NH2
modifications: not fully specified; printed as Ac-GGGDSC; reading uncertain
notes: also called 0.5% Ac-GGGDSC; Ac-GXGDSC with X = Gly
binding result [2]: binds

B3: Ac-GVGDSC (SEQ ID NO: 32), immobilized on a monolayer array (peptide)
peptide: Ac-GVGDSC(maleimide monolayer)-NH2
modifications: not fully specified; printed as Ac-GVGDSC; reading uncertain
notes: also called 0.5% Ac-GVGDSC; Ac-GXGDSC with X = Val
binding result [2]: binds

B4: Ac-GLGDSC (SEQ ID NO: 34), immobilized on a monolayer array (peptide)
peptide: Ac-GLGDSC(maleimide monolayer)-NH2
modifications: not fully specified; printed as Ac-GLGDSC; reading uncertain
notes: also called 0.5% Ac-GLGDSC; Ac-GXGDSC with X = Leu
binding result [2]: binds

B5: Ac-GKGDSC (SEQ ID NO: 31), immobilized on a monolayer array (peptide)
peptide: Ac-GKGDSC(maleimide monolayer)-NH2
modifications: not fully specified; printed as Ac-GKGDSC; reading uncertain
notes: also called 0.5% Ac-GKGDSC; Ac-GXGDSC with X = Lys
binding result [2]: binds

B6: Ac-GIGDSC (SEQ ID NO: 33), immobilized on a monolayer array (peptide)
peptide: Ac-GIGDSC(maleimide monolayer)-NH2
modifications: not fully specified; printed as Ac-GIGDSC; reading uncertain
notes: also called 0.5% Ac-GIGDSC; Ac-GXGDSC with X = Ile
binding result [2]: binds

Molecule: Ac-GRGDSC(maleimide monolayer)-NH2 (not fully specified; printed as Ac-GRGDSC; reading uncertain, also called 0.5% Ac-GRGDSC) [Ac-GRGDSC (SEQ ID NO: 28), immobilized on a monolayer array]
binding result [2]: binds

The remaining lines, values ahead:

binding result [2]: no binding
Molecule: Ac-GSGDSC(maleimide monolayer)-NH2 (not fully specified; printed as Ac-GXGDSC; reading uncertain, Member of the Ac-GXGDSC library) [Ac-GXGDSC (SEQ ID NO: 26) with X = S, immobilized on a monolayer array]

binding result [2]: no binding
Molecule: Ac-GMGDSC(maleimide monolayer)-NH2 (not fully specified; printed as Ac-GXGDSC; reading uncertain, Member of the Ac-GXGDSC library) [Ac-GXGDSC (SEQ ID NO: 26) with X = M, immobilized on a monolayer array]

binding result [2]: no binding
Molecule: Ac-GWGDSC(maleimide monolayer)-NH2 (reading uncertain; also: printed as Ac-GXGDSC, Member of the Ac-GXGDSC library) [Ac-GXGDSC (SEQ ID NO: 26) with X = W, immobilized on a monolayer array]

binding result [2]: no binding
Molecule: Ac-GDGDSC(maleimide monolayer)-NH2 (not fully specified; printed as Ac-GXGDSC; reading uncertain, Member of the Ac-GXGDSC library) [Ac-GXGDSC (SEQ ID NO: 26) with X = D, immobilized on a monolayer array]

binding result [2]: no binding
Molecule: Ac-GYGDSC(maleimide monolayer)-NH2 (reading uncertain; also: printed as Ac-GXGDSC, Member of the Ac-GXGDSC library) [Ac-GXGDSC (SEQ ID NO: 26) with X = Y, immobilized on a monolayer array]

binding result [2]: no binding
Molecule: Ac-GQGDSC(maleimide monolayer)-NH2 (not fully specified; printed as Ac-GXGDSC; reading uncertain, Member of the Ac-GXGDSC library) [Ac-GXGDSC (SEQ ID NO: 26) with X = Q, immobilized on a monolayer array]

binding result [2]: no binding
Molecule: Ac-GHGDSC(maleimide monolayer)-NH2 (not fully specified; printed as Ac-GXGDSC; reading uncertain, Member of the Ac-GXGDSC library) [Ac-GXGDSC (SEQ ID NO: 26) with X = H, immobilized on a monolayer array]

binding result [2]: no binding
Molecule: Ac-GTGDSC(maleimide monolayer)-NH2 (not fully specified; printed as Ac-GXGDSC; reading uncertain, Member of the Ac-GXGDSC library) [Ac-GXGDSC (SEQ ID NO: 26) with X = T, immobilized on a monolayer array]

binding result [2]: no binding
Molecule: Ac-GFGDSC(maleimide monolayer)-NH2 (not fully specified; printed as Ac-GXGDSC; reading uncertain, Member of the Ac-GXGDSC library) [Ac-GXGDSC (SEQ ID NO: 26) with X = F, immobilized on a monolayer array]
